Experimental data taken from US20180155451A1 (published 2018).

T1: FcγRIIb extracellular domain with C-terminal His tag (human, UniProt P31994 43-217)
T1 construct: extracellular domain; soluble receptor expressed in FreeStyle293 cells, used as analyte in Biacore; also called FcgRIIb; 2b; not shown: His tag attached to the C terminus
T1 sequence (looked up): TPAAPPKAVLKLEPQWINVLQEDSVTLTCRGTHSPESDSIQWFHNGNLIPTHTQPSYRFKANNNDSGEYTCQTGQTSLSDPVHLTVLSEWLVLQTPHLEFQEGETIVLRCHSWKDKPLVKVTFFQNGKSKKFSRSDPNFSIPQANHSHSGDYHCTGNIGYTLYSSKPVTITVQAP


Legend:
[1] = target: T1, FcγRIIb extracellular domain with …; assay: SPR (Biacore), antibody captured on antigen peptide chip, FcγR as analyte; relative binding
[2] = target: T2, FcγRIa extracellular domain with C-terminal His tag (human, UniProt P12314 16-292); assay: as above
T2 construct: extracellular domain; soluble receptor expressed in FreeStyle293 cells, used as analyte in Biacore; also called FcgRI; 1a; not shown: His tag attached to the C terminus
T2 sequence (P12314 16-292): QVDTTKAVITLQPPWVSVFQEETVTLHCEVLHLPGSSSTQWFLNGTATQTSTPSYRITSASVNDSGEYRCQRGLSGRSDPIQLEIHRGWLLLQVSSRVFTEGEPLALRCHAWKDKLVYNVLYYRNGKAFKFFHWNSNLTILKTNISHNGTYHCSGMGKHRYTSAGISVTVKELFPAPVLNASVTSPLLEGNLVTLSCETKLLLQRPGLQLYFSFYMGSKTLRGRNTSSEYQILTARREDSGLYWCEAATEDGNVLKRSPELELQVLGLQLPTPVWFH

Binder	He/Con_2b [1]	He/Con_1a [2]
GpH7-A5/GpH7-B3 variant D270_08L/GpL16-k0 (antibody, human IgG1, kappa, heterodimerized anti-glypican-3 IgG1; alteration in the GpH7-B3 chain only; also called He Ab) heavy 1: not shown heavy 2: not shown light: DIVMTQSPLSLPVTPGEPASISCQASESLVHSNRNTYLHWYLQKPGQSPQLLIYKVSNRFSGVPDRFSGSGSGTDFTLKISRVEAEDVGVYYCSQNTHVPPTFGQGTKVEIERTVAAPSVFIFPPSDEQLKSGTASVVCLLNNFYPREAKVQWKVDNALQSGNSQESVTEQDSKDSTYSLSSTLTLSKADYEKHKVYACEVTHQGLSSPVTKSFNRGEC	53.6 % of control GpH7-A5/GpH7-B3/GpL16-k0 (=100)	73.5 % of control GpH7-A5/GpH7-B3/GpL16-k0 (=100)
GpH7-A5/GpH7-B3 variant D270_20W/GpL16-k0 (antibody, human IgG1, kappa, heterodimerized anti-glypican-3 IgG1; alteration in the GpH7-B3 chain only; also called He Ab) heavy 1: not shown heavy 2: not shown light: DIVMTQSPLSLPVTPGEPASISCQASESLVHSNRNTYLHWYLQKPGQSPQLLIYKVSNRFSGVPDRFSGSGSGTDFTLKISRVEAEDVGVYYCSQNTHVPPTFGQGTKVEIERTVAAPSVFIFPPSDEQLKSGTASVVCLLNNFYPREAKVQWKVDNALQSGNSQESVTEQDSKDSTYSLSSTLTLSKADYEKHKVYACEVTHQGLSSPVTKSFNRGEC	34.7 % of control GpH7-A5/GpH7-B3/GpL16-k0 (=100)	68 % of control GpH7-A5/GpH7-B3/GpL16-k0 (=100)
GpH7-A5/GpH7-B3 variant D270_18N/GpL16-k0 (antibody, human IgG1, kappa, heterodimerized anti-glypican-3 IgG1; alteration in the GpH7-B3 chain only; also called He Ab) heavy 1: not shown heavy 2: not shown light: DIVMTQSPLSLPVTPGEPASISCQASESLVHSNRNTYLHWYLQKPGQSPQLLIYKVSNRFSGVPDRFSGSGSGTDFTLKISRVEAEDVGVYYCSQNTHVPPTFGQGTKVEIERTVAAPSVFIFPPSDEQLKSGTASVVCLLNNFYPREAKVQWKVDNALQSGNSQESVTEQDSKDSTYSLSSTLTLSKADYEKHKVYACEVTHQGLSSPVTKSFNRGEC	40.3 % of control GpH7-A5/GpH7-B3/GpL16-k0 (=100)	67.8 % of control GpH7-A5/GpH7-B3/GpL16-k0 (=100)
GpH7-A5/GpH7-B3 variant E269_19Q/GpL16-k0 (antibody, human IgG1, kappa, heterodimerized anti-glypican-3 IgG1; alteration in the GpH7-B3 chain only; also called He Ab) heavy 1: not shown heavy 2: not shown light: DIVMTQSPLSLPVTPGEPASISCQASESLVHSNRNTYLHWYLQKPGQSPQLLIYKVSNRFSGVPDRFSGSGSGTDFTLKISRVEAEDVGVYYCSQNTHVPPTFGQGTKVEIERTVAAPSVFIFPPSDEQLKSGTASVVCLLNNFYPREAKVQWKVDNALQSGNSQESVTEQDSKDSTYSLSSTLTLSKADYEKHKVYACEVTHQGLSSPVTKSFNRGEC	44.3 % of control GpH7-A5/GpH7-B3/GpL16-k0 (=100)	105 % of control GpH7-A5/GpH7-B3/GpL16-k0 (=100)
GpH7-A5/GpH7-B3 variant D270_14T/GpL16-k0 (antibody, human IgG1, kappa, heterodimerized anti-glypican-3 IgG1; alteration in the GpH7-B3 chain only; also called He Ab) heavy 1: not shown heavy 2: not shown light: DIVMTQSPLSLPVTPGEPASISCQASESLVHSNRNTYLHWYLQKPGQSPQLLIYKVSNRFSGVPDRFSGSGSGTDFTLKISRVEAEDVGVYYCSQNTHVPPTFGQGTKVEIERTVAAPSVFIFPPSDEQLKSGTASVVCLLNNFYPREAKVQWKVDNALQSGNSQESVTEQDSKDSTYSLSSTLTLSKADYEKHKVYACEVTHQGLSSPVTKSFNRGEC	57.8 % of control GpH7-A5/GpH7-B3/GpL16-k0 (=100)	70.6 % of control GpH7-A5/GpH7-B3/GpL16-k0 (=100)
GpH7-A5/GpH7-B3 variant E333_03V/GpL16-k0 (antibody, human IgG1, kappa, heterodimerized anti-glypican-3 IgG1; alteration in the GpH7-B3 chain only; also called He Ab) heavy 1: not shown heavy 2: not shown light: DIVMTQSPLSLPVTPGEPASISCQASESLVHSNRNTYLHWYLQKPGQSPQLLIYKVSNRFSGVPDRFSGSGSGTDFTLKISRVEAEDVGVYYCSQNTHVPPTFGQGTKVEIERTVAAPSVFIFPPSDEQLKSGTASVVCLLNNFYPREAKVQWKVDNALQSGNSQESVTEQDSKDSTYSLSSTLTLSKADYEKHKVYACEVTHQGLSSPVTKSFNRGEC	93.2 % of control GpH7-A5/GpH7-B3/GpL16-k0 (=100)	105 % of control GpH7-A5/GpH7-B3/GpL16-k0 (=100)
GpH7-A5/GpH7-B3 variant D270_16H/GpL16-k0 (antibody, human IgG1, kappa, heterodimerized anti-glypican-3 IgG1; alteration in the GpH7-B3 chain only; also called He Ab) heavy 1: not shown heavy 2: not shown light: DIVMTQSPLSLPVTPGEPASISCQASESLVHSNRNTYLHWYLQKPGQSPQLLIYKVSNRFSGVPDRFSGSGSGTDFTLKISRVEAEDVGVYYCSQNTHVPPTFGQGTKVEIERTVAAPSVFIFPPSDEQLKSGTASVVCLLNNFYPREAKVQWKVDNALQSGNSQESVTEQDSKDSTYSLSSTLTLSKADYEKHKVYACEVTHQGLSSPVTKSFNRGEC	47.2 % of control GpH7-A5/GpH7-B3/GpL16-k0 (=100)	66 % of control GpH7-A5/GpH7-B3/GpL16-k0 (=100)
GpH7-A5/GpH7-B3 variant E333_02A/GpL16-k0 (antibody, human IgG1, kappa, heterodimerized anti-glypican-3 IgG1; alteration in the GpH7-B3 chain only; also called He Ab) heavy 1: not shown heavy 2: not shown light: DIVMTQSPLSLPVTPGEPASISCQASESLVHSNRNTYLHWYLQKPGQSPQLLIYKVSNRFSGVPDRFSGSGSGTDFTLKISRVEAEDVGVYYCSQNTHVPPTFGQGTKVEIERTVAAPSVFIFPPSDEQLKSGTASVVCLLNNFYPREAKVQWKVDNALQSGNSQESVTEQDSKDSTYSLSSTLTLSKADYEKHKVYACEVTHQGLSSPVTKSFNRGEC	83.8 % of control GpH7-A5/GpH7-B3/GpL16-k0 (=100)	103 % of control GpH7-A5/GpH7-B3/GpL16-k0 (=100)
GpH7-A5/GpH7-B3 variant E333_05P/GpL16-k0 (antibody, human IgG1, kappa, heterodimerized anti-glypican-3 IgG1; alteration in the GpH7-B3 chain only; also called He Ab) heavy 1: not shown heavy 2: not shown light: DIVMTQSPLSLPVTPGEPASISCQASESLVHSNRNTYLHWYLQKPGQSPQLLIYKVSNRFSGVPDRFSGSGSGTDFTLKISRVEAEDVGVYYCSQNTHVPPTFGQGTKVEIERTVAAPSVFIFPPSDEQLKSGTASVVCLLNNFYPREAKVQWKVDNALQSGNSQESVTEQDSKDSTYSLSSTLTLSKADYEKHKVYACEVTHQGLSSPVTKSFNRGEC	97.7 % of control GpH7-A5/GpH7-B3/GpL16-k0 (=100)	102 % of control GpH7-A5/GpH7-B3/GpL16-k0 (=100)
GpH7-A5/GpH7-B3 variant E333_04F/GpL16-k0 (antibody, human IgG1, kappa, heterodimerized anti-glypican-3 IgG1; alteration in the GpH7-B3 chain only; also called He Ab) heavy 1: not shown heavy 2: not shown light: DIVMTQSPLSLPVTPGEPASISCQASESLVHSNRNTYLHWYLQKPGQSPQLLIYKVSNRFSGVPDRFSGSGSGTDFTLKISRVEAEDVGVYYCSQNTHVPPTFGQGTKVEIERTVAAPSVFIFPPSDEQLKSGTASVVCLLNNFYPREAKVQWKVDNALQSGNSQESVTEQDSKDSTYSLSSTLTLSKADYEKHKVYACEVTHQGLSSPVTKSFNRGEC	94.6 % of control GpH7-A5/GpH7-B3/GpL16-k0 (=100)	102 % of control GpH7-A5/GpH7-B3/GpL16-k0 (=100)
